Here are results for three compounds from US20040248202A1, “Bacteriorhodopsin/G protein-coupled receptor chimeras” (Wisconsin Alumni Research Foundation, priority 1998, published 2004).

One experiment deals with transducin (Homo sapiens, UniProt P11488). Kind of experiment: GTPyS exchange assay in the presence of high affinity analog or random peptide. It counts as biochemical. To be noted: for % Inhibition of GTPγS Uptake (Controlled for Peptide inhibition of Basal Exchange): 3C; for % Inhibition of GTPγS Uptake (Controlled for Peptide inhibition of Basal Exchange) / Specific counts (Lattice Form) / SPECIFIC COUNTS: (Lattice Form): 10 Minutes. The method, then:
(§1) Chimeric or bacteriorhodopsin protein (1.7 uM) was incubated with 0.8 uM holotransducin with 10 nM ^35S radiolabeled GTPyS in buffer (20 mM Hepes (pH 7.5), 5 mM MgCl2, 1 mM DTT, 0.1 mM EDTA, and 20 mM NaCl). The reaction was incubated at 30° C. for 5, 10, 15 or 30 minutes. The reaction was terminated by transferring aliquots of the reaction mixture to nitrocellulose filters (0.45 um) prewetted with wash buffer (10 mM Tris (pH 7.5), 5 mM MgCl2, 100 mM NaC1, 0.1 mM EDTA) and placed on a vacuum manifold. The filters were then washed with 8 ml of wash buffer. The filters were then placed overnight in scintillation vials filled with 20 ml of scintillation cocktail. The activity of the vials was counted by a Liquid Scintillation Counter. For the BR-Rhodopsin loop 3 chimeras, in which the rhodopsin intracellular loop 3 replaced the native BR intracellular loop 3 and was fused from T157 on BR TM 5 to V167 on BR TM 6, activity was determined by an increased uptake of GTPS over basal exchange by transducin alone.
The high affinity analog has the sequence V-L-E-D-L-K-S-C-G-L-F-G (SEQ ID NO:43) (J. Biol. Chem. 271 pp. 361-366, 1996).
The random peptide consists of the sequence S-S-V-F-L-V-V-D-R-S-R (SEQ ID NO:44).
The addition of the high affinity analog at a final concentration of 8 uM gave the following results.
The second inhibition experiment used 50 uM of the high affinity analog.

For another experiment, the target named is holotransducin (Homo sapiens, UniProt P11488). Kind of experiment: Effects of GDP concentration on the basal exchange of GTPγS by holotransducin. It counts as biochemical. The conditions noted are these: 10 Minutes. The protocol: as §1
Chain of holotransducin (P11488 2-350 limits assumed): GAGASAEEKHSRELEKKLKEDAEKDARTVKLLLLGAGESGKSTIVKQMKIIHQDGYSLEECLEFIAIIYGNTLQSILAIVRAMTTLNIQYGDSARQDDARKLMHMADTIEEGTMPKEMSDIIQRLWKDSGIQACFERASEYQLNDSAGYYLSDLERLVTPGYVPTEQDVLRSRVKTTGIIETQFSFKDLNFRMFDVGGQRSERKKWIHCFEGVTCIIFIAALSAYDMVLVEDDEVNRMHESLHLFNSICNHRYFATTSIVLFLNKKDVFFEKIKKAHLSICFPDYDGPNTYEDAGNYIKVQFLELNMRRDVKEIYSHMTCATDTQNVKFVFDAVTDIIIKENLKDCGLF
Chain of holotransducin (P62873 2-340 partner limits assumed): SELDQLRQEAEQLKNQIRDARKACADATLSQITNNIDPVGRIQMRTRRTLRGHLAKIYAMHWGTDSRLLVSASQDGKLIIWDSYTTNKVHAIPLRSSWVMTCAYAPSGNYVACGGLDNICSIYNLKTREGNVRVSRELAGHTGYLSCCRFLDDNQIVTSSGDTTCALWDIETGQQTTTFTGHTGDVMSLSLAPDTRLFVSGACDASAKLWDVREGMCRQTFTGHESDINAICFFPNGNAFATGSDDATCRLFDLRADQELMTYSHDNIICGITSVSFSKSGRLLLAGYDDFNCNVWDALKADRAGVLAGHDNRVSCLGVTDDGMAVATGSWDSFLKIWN
Chain of holotransducin (P63211 2-71 partner limits assumed): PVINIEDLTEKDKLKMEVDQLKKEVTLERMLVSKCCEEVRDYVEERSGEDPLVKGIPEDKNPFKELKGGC
The next set of experiments was designed to measure the effects of GDP concentration on the basal exchange of GTPγS by holotransducin.

Setting [1] is: Basal Exchange (no chimera) + 8 uM peptide.

Chain of transducin (P11488 2-350 limits assumed): as the sequence (P11488 2-350 limits assumed) above
Chain of transducin (P62873 2-340 partner limits assumed): as the sequence (P62873 2-340 partner limits assumed) above
Chain of transducin (P63211 2-71 partner limits assumed): as the sequence (P63211 2-71 partner limits assumed) above

With “V-L-E-D-L-K-S-C-G-L-F-G (VLEDLKSCGLFG) [High affinity analog]”, the results for the “% Inhibition of GTPγS Uptake (Controlled for Peptide inhibition of Basal Exchange)” value with transducin (8 uM peptide) and with transducin (50 uM peptide) were 23% and 70%, respectively. The “Specific counts (Lattice Form)” value was determined as 42455 counts with transducin (3C + 8 uM peptide) and 23154 counts in the experiment with transducin (setting [1]). The “SPECIFIC COUNTS: (Lattice Form)” value is 46892 counts in the experiment with transducin (3C + 50 uM peptide) and 33888 counts with transducin (Basal Exchange (no chimera) + 50 uM peptide). In the experiment with transducin (presence of peptide), the “Effect on chimera-enhanced GTP-GDP exchange” value is listed as “inhibited”.
“S-S-V-F-L-V-V-D-R-S-R (SSVFLVVDRSR) [Random peptide]”: the figures for the “% Inhibition of GTPγS Uptake (Controlled for Peptide inhibition of Basal Exchange)” value with transducin (8 uM peptide) and with transducin (50 uM peptide) were 5.8% and 30%, respectively. Further, the entries for the “Specific counts (Lattice Form)” value in the experiment with transducin (3C + 8 uM peptide) and with transducin (setting [1]) were 47516 counts and 23868 counts, respectively. For the same compound, the “SPECIFIC COUNTS: (Lattice Form)” value with transducin (3C + 50 uM peptide) worked out at 35568 counts.
`Nc1nc2c(ncn2[C@@H]2O[C@H](COP(=O)(O)OP(=O)(O)O)[C@@H](O)[C@H]2O)c(=O)[nH]1` [GDP]: the “Specific counts (Lattice Form)” value at holotransducin (Basal Exchange + 10 uM GDP) was 22885 counts; at holotransducin (Basal Exchange + 50 uM GDP), 11061 counts; at holotransducin (Basal Exchange + 100 uM GDP), 7502 counts.
